Laboratory results taken from patent US20210380685A1.

Experiments:
[1] = molecular target: LRID Fab fused to the GPI signal sequence from decay accelerating factor, on SP2/0 cells (Fab-GPI); test: cell-based or functional assay
[2] = molecular target: LRID Fab fused to the transmembrane portion of glycophorin A, on SP2/0 cells (Fab-GlycoA); test: cell-based or functional assay
LRID Fab fused to the transmembrane portion of glycophorin A, on SP2/0 cells (Fab-GlycoA), sequence (VH, as listed by the source limits assumed, chain 1 of 2): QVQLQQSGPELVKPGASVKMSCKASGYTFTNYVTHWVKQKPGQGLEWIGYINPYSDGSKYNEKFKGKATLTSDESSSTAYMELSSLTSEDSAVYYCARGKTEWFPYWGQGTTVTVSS
LRID Fab fused to the transmembrane portion of glycophorin A, on SP2/0 cells (Fab-GlycoA), sequence (VL, as listed by the source limits assumed, chain 2 of 2): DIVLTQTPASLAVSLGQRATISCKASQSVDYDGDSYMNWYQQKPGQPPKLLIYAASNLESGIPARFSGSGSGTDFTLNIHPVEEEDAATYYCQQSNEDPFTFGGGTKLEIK

LRID Fab fused to the GPI signal sequence from decay accelerating factor, on SP2/0 cells (Fab-GPI), sequence (VH, as listed by the source limits assumed, chain 1 of 2): as the sequence (VH, as listed by the source limits assumed, chain 1 of 2) above
LRID Fab fused to the GPI signal sequence from decay accelerating factor, on SP2/0 cells (Fab-GPI), sequence (VL, as listed by the source limits assumed, chain 2 of 2): as the sequence (VL, as listed by the source limits assumed, chain 2 of 2) above

B1: SM03 (antibody, V domains shown)
VH: QVQLQESGGGLVKPGGSLKLSCAASGFAFSIYDMSWVRQTPEKRLEWVAYISSGGGTTYYPDTVKGRFTISRDNAKNTLYLQMSSLKSEDTAMYYCARHSGYGSSYGVLFAYWGQGTLVTVSS
VL: DIQLTQTTSSLSASLGDRVTISCRASQDISNYLNWYQQKPDGTVKLLIYYTSILHSGVPSRFSGSGSGTDYSLTISNLEQEDFATYFCQQGNTLPWTFGGGTKLEIKR
modifications: here or on the partner: The mature protein on cells carries a GPI anchor in place of the cleaved DAF signal; the letters cannot show this.
In the case of B1, the CMC activities, maximum killing [1] is reported as > 90%, the CMC killing of surrogate target cells, EC50 [1] is reported as 220 µg/mL and the CMC activities, maximum killing [2] is reported as > 90%. It also gave a CMC killing of surrogate target cells, EC50 [2] of 130 µg/mL.
